For 34 molecules, binding score results are on record in article PMC5454392, “Selective BET bromodomain inhibition as an antifungal therapeutic strategy” (Nature Communications, 2017).

Square brackets hold non-standard residues; d marks the D form. Ends that are not written are not given here. Arg(Me2a) = CN(C)C(=N)NCCC[C@H](N)C(=O)O; Lys(Me3) = C[N+](C)(C)CCCC[C@H](N)C(=O)O; Arg(Me2s) = CN=C(NC)NCCC[C@H](N)C(=O)O; pT = C[C@@H](OP(=O)(O)O)[C@H](N)C(=O)O; Lys(Me2) = CN(C)CCCC[C@H](N)C(=O)O; pS = N[C@@H](COP(=O)(O)O)C(=O)O; Lys(Me) = CNCCCC[C@H](N)C(=O)O; Me2a = not defined here; me2a = not defined here

In experiment [1] the target is T1, CaBdf1 BD2 (GST-tagged, wild-type) (Candida albicans (strain SC5314 / ATCC …, UniProt Q5A4W8)).
T1 chain: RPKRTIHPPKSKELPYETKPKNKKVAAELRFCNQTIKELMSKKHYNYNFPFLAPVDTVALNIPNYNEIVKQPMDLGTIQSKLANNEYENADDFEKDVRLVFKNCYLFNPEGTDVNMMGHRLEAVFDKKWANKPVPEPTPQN
Nature of the experiment: histone peptide array (Active Motif MODified), 1 uM GST-tagged bromodomain, anti-GST detection, normalized mean intensity.

Experiment [2] addresses T2, CaBdf1 BD1 (GST-tagged, wild-type) (Candida albicans (strain SC5314 / ATCC …, UniProt Q5A4W8)).
T2 chain: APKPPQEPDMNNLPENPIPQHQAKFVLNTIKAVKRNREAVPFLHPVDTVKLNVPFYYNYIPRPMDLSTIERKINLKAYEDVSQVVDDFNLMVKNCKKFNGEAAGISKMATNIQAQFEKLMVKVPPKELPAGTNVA
Described as above.

B1: H3 1-19 (peptide)
chain: ARTKQTARKSTGGKAPRKQ
modifications: A Rme2a T Kme2 Q T A Rme2s Kac S T G G K A P R K Q
Turning to B1, the binding score in experiment [1] was 0.00333; in experiment [2] it was 0.0435.

B2: H3 1-19 (peptide)
chain: AR(me2a)TK(Ac)QTAR(me2a)K(Me)STGGKAPRKQ
modifications: reading uncertain
B2: the binding score turned out to be 0.00888 in experiment [1] and 0.00761 in experiment [2].

B3: H3 26-45 (peptide)
chain: RKSAPATGGVKKPHRYRPG
modifications: R K S A P A T G G V Kme3 K P H R Y R P G
With B3, the binding score was 0.00777 in experiment [1] and 0.00761 in experiment [2].

B4: H3 1-19 (peptide)
chain: ARTKQTA[Arg(Me2a)]K(Ac)[pS]TGGKAPRKQ
Take B4: the binding score in experiment [1] is 0.00407; in experiment [2], 0.00399.

B5: H3 16-35 (peptide)
chain: PRKQLATKAA[Arg(Me2a)]K(Me)SAPATGG
For B5, the binding score is 0.00444 in experiment [1] and 0.00399 in experiment [2].

B6: H3 16-35 (peptide)
chain: PRKQLATKAARK(Me3)[pS]APATGG
Turning to B6, the binding score is 0.00074 in experiment [1] and 0.0029 in experiment [2].

B7: H3 1-19 (peptide)
chain: ARTKQTARKSTGGKAPRKQ
modifications: A R T Kac Q T A Rme2s Kme3 S T G G K A P R K Q
With B7, the binding score in experiment [1] was determined as 0.00407; in experiment [2], 0.00689.

B8: H3 16-35 (peptide)
chain: PRKQLATKAARKSAPATGG
modifications: not fully specified
On to B8, for which the binding score in experiment [1] was found to be 0.00111; in experiment [2] it was 0.00798.

B9: H3 1-19 (peptide)
chain: ARTKQTARKSTGGKAPRKQ
modifications: A Rme2s pT Kme2 Q T A R K S T G G K A P R K Q
For the molecule B9, the binding score was 0.00333 in experiment [1] and 0.00363 in experiment [2].

B10: H3 1-19 (peptide)
chain: AR(Me2a)[pT]K(Ac)QTARKSTGGKAPRKQ
modifications: reading uncertain
Consider B10, for which the binding score in experiment [1] amounted to 0.00111; in experiment [2] it was 0.00943.

B11: H4 1-19 (peptide)
chain: SGRGKGGKGLGKGGAKRHR
modifications: S G R G K G G Kac G L G Kac G G A Kac R H R
In the case of B11, the binding score in experiment [1] worked out at 0.16; in experiment [2], 0.201.

B12: H3 1-19 (peptide)
chain: AR(Me2s)TK(Ac)QTARKSTGGKAPRKQ
Regarding B12, the binding score in experiment [1] came to 0.00074; in experiment [2] it was 0.00616.

B13: H3 16-35 (peptide)
chain: PRKQLATKAAR(Me2a)K(Ac)SAPATGG
modifications: reading uncertain
B13: the binding score in experiment [1] was 0.00999; in experiment [2], 0.0189.

B14: H3 1-19 (peptide)
chain: A[Arg(Me2a)]T[Lys(Me2)]QTA[Arg(Me2s)][Lys(Me2)]STGGKAPRKQ
With B14, the binding score turned out to be 0.00666 in experiment [1] and 0.0029 in experiment [2].

B15: H3 1-19 (peptide)
chain: ARTKQTARKSTGGKAPRKQ
modifications: A Rme2s T Kac Q T A Rme2s Kac S T G G K A P R K Q
B15: the figures for the binding score in experiment [1] and in experiment [2] were 0.00629 and 0.041, respectively.

B16: H2a 1-19 (peptide)
chain: [pS]GRGK(Ac)QGGK(Ac)ARAK(Ac)AKSRSS
B16: the binding score in experiment [1] worked out at 0.00888; in experiment [2] it was 0.0515.

B17: H4 1-19 (peptide)
chain: SGRGKGGKGLGKGGAKRHR
modifications: S G Rme2a G Kac G G Kac G L G K G G A K R H R
Consider B17, for which the binding score turned out to be 0.0411 in experiment [1] and 0.0558 in experiment [2].

B18: H3 1-19 (peptide)
chain: ARTKQTARKSTGGKAPRKQ
modifications: A R T K Q T A R Kme1 S T G G K A P R K Q
Consider B18, for which the binding score is 0.00407 in experiment [1] and 0.00435 in experiment [2].

B19: H3 1-19 (peptide)
chain: ARTKQTARKSTGGKAPRKQ
modifications: A Rme2a T Kac Q T A Rme2a K S T G G K A P R K Q
In the case of B19, the binding score in experiment [1] was 0.00592; in experiment [2], 0.00399.

B20: H3 1-19 (peptide)
chain: ARTKQTARKSTGGKAPRKQ
modifications: A R T Kme2 Q T A Rme2a Kme1 S T G G K A P R K Q
Take B20: the binding score in experiment [1] stood at 0.00666; in experiment [2] it was 0.0363.

B21: H4 1-19 (peptide)
chain: SGRGKGGKGLGKGGAKRHR
modifications: pS G Rme2a G K G G K G L G K G G A K R H R
Regarding B21, the values for the binding score in experiment [1] and in experiment [2] were 0.00148 and 0.00471, respectively.

B22: H2a 1-19 (peptide)
chain: SGRGKQGGKARAK(Ac)AKSRSS
With B22, the binding score in experiment [1] worked out at 0.0141; in experiment [2], 0.0943.

B23: H4 1-19 (peptide)
chain: SGRGKGGKGLGKGGAKRHR
modifications: pS G Rme2s G K G G K G L G K G G A K R H R
Consider B23, for which the binding score in experiment [1] was found to be 0.00333; in experiment [2], 0.00508.

B24: H3 1-19 (peptide)
chain: ARTKQTA[Arg(Me2s)]K(Ac)[pS]TGGKAPRKQ
In the case of B24, the binding score came out at 0.00296 in experiment [1] and 0.00363 in experiment [2].

B25: H3 1-19 (peptide)
chain: ARTKQTARKSTGGKAPRKQ
modifications: A R T Kac Q T A Rme2a Kme3 S T G G K A P R K Q
Consider B25, for which the binding score in experiment [1] is 0.00592; in experiment [2] it was 0.0087.

B26: H3 16-35 (peptide)
chain: PRKQLATKAAR(Me2s)K(Ac)SAPATGG
Turning to B26, the binding score in experiment [1] came to 0.00814; in experiment [2], 0.0123.

B27: H3 1-19 (peptide)
chain: ARTKQTARKSTGGKAPRKQ
modifications: A R T K Q T A R Kac pS T G G K A P R K Q
Consider B27, for which the binding score in experiment [1] was 0.00407; in experiment [2], 0.00435.

B28: H3 1-19 (peptide)
chain: ARTKQTARKSTGGKAPRKQ
modifications: A Rme2s T Kme1 Q T A Rme2s Kme2 S T G G K A P R K Q
Consider B28, for which the results for the binding score in experiment [1] and in experiment [2] were 0.00333 and 0.00254, respectively.

B29: H3 1-19 (peptide)
chain: ARTKQTA[Arg(Me2a)]K(Me)[pS]TGGKAPRKQ
For B29, the figures for the binding score in experiment [1] and in experiment [2] were 0.00407 and 0.00326, respectively.

B30: H3 1-19 (peptide)
chain: ARTKQTARKSTGGKAPRKQ
modifications: A Rme2a T Kac Q T A Rme2s Kme1 S T G G K A P R K Q
For B30, the binding score in experiment [1] was determined as 0.00296; in experiment [2] it was 0.00471.

B31: H3 1-19 (peptide)
chain: ARTKQTARKSTGGKAPRKQ
modifications: A R T K Q T A R K pS pT G G K A P R K Q
As to B31, the binding score in experiment [1] came to 0.00407; in experiment [2], 0.00326.

B32: H3 16-35 (peptide)
chain: PRKQLATKAAR(Me2s)K(Me)SAPATGG
For B32, the binding score in experiment [1] amounted to 0.00296; in experiment [2], 0.00435.

B33: H3 1-19 (peptide)
chain: A[Arg(Me2a)]T[Lys(Me3)]QTA[Arg(Me2a)][Lys(Me)]STGGKAPRKQ
For B33, the values for the binding score in experiment [1] and in experiment [2] were 0.00851 and 0.00435, respectively.

B34: H3 1-19 (peptide)
chain: ARTKQTARKSTGGKAPRKQ
modifications: A Rme2a T Kme3 Q T A Rme2a Kac S T G G K A P R K Q
B34: the figures for the binding score in experiment [1] and in experiment [2] were 0.00999 and 0.0392, respectively.
